Test: yeast display, Sf9 membrane polyspecificity reagent, FACS + sequencing; frameworks hold sequencing errors
Procedure, shortened: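 Synthetic nanobody libraries on Saccharomyces cerevisiae BJ5465 were galactose-induced for 36–48 hours, stained 1 hour at 4 °C with 10% biotinylated, detergent-solubilized Sf9 membrane reagent and enriched on streptavidin microbeads. FACS then separated cells into low and high (top ~1%) gates by anti-HA (expression) and streptavidin (reagent binding) fluorescence. Genes were colony-PCR amplified, MiSeq 2 × 250 sequenced and CDR-length filtered. A clone's polyreactivity label is that of its gate of origin.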

Sequence | polyreactivity (PSR sort gate)
QVQLVESGGGLVQAGGSLRLSCAASGRTFPGNAMGWYRQATGKERELVATISSGGTTNYADSVKGRFTISRDNAKNTVYLQMNSLKPEDTAVYYCATDTYHHKADYEYWGQGTQVTVSS | low polyreactivity
QVQLVESGGGLVQAGGSLRLSCAASGRTFPGYAMGWYRQAPGTEMEMVAAISSGGGTKYADSVKGRFTISRDNAKYTVYVQMNSLKPEDTAVFYCAARGGTYHWGRYYWRQYDYWGQGTQVTVSS | high polyreactivity
QVQLVESGGGLVQAGGSLRLSCAASGRTFPIYAMGWYRQAPGKERELVAAITRGGRTNYADSVKGRFTISRDNAKNTVYLQMNSLKTEDTAVYYCAARSYGTYLYAEYDYWGQGTQVTVSS | high polyreactivity
QVQLVESGGGLVQAGGSLRLSCAASGRTFPKYAMGWYRQAPGKERELVAAITWRASRTYYADSVKGRFTISRDYAKITVYLQMNSLKPEDTAVYYCAAKGVGQAPKRDYWGQGTQVNVSS | high polyreactivity
QVQLVESGGGLVQAGGSLRLSCAASGRTFPNNAMGWYRQAPGKERELVAAISSGSSTDYADSVKGRFTISRDNAKNTVYLQMNSLKPEDTAVYYCNAGDYTYPGSPWPGYAYDYWGQGTQVTVSS | low polyreactivity
QVQLVESGGGLVQAGGSLRLSCAASGRTFPRYAMGWYRQAPGKEMELVAAISVRAGITYYADSVKGRFTISRDNAKNTVYLQMNSLKPEDTAVYYCAKDHWTTSYDEGDYWGQGTQVTVSS | low polyreactivity
QVQLVESGGGLVQAGGSLRLSCAASGRTFPRYGMGWYRQAPGKERELVATIRTGGRTNYADSVKGRFTISRDNAKNTVYLQMNSLKPEDTAVYYCATDSSKHPYSPTLLKFDYWGQGTQVTVSS | low polyreactivity
QVQLVESGGGLVQAGGSLRLSCAASGRTFPRYVMGWYRPAPGKERELVASITSSGGSTYYADSVKGRLTISRDNAKNTVYLQMNSLKPEDTAVYYCAAYARPNSGPYAYRLDYWGQGTQVTVSS | high polyreactivity
QVQLVESGGGLVQAGGSLRLSCAASGRTFPRYVMGWYRQAPGKERELVAAITSSGGSTYYADSVKGRFTISRDNAKNTVYLQMNSLKPEDTAVYYCAAYARPYSGPYAYRLDYWGQGTQVTVSS | high polyreactivity
QVQLVESGGGLVQAGGSLRLSCAASGRTFPSNVMGRYIQAHGKERELVAGITWRGGSTYYADSVKGRFTISRDNAKYTVYLQINSLKPEDTAVYYCAVRTQYRRYEYWGHGTQVTVSS | high polyreactivity
QVQLVESGGGLVQAGGSLRLSCAASGRTFPSYAMGWYRQAPGKERELVAAITRGGSTNYADSVKGRFTISRDNAKNTVYLQMNSLKPEDTAVYYCAAARWRWQLARDDYWGEGTQVTVSS | high polyreactivity
QVQLVESGGGLVQAGGSLRLSCAASGRTFPSYAMGWYRQAPGKERELVAGIRWGAGRTYYADSVKGRFTISRDNAKNTVYLQMNSLKPEVTAVYYCAADPWSGSDYWGQGTQVTVSS | low polyreactivity
QVQLVESGGGLVQAGGSLRLSCAASGRTFPSYAMGWYRQAPGKERELVAVIRGGGSTKYADSVKGRFTISRDNAKNTVYLQMNSLKPEDTAVYYCATRGYPKFNYIYYYWGQGTQVTVSS | high polyreactivity
QVQLVESGGGLVQAGGSLRLSCAASGRTFPSYTMGWYRQAPGKERELVAPNDGGGDTYYADSVKGRFTISRDNAKNSVYLQMKSLKPEDTAVYYCRDWYPSYWYYYYAEYDYWGQGTQVTVSS | high polyreactivity
QVQLVESGGGLVQAGGSLRLSCAASGRTFPVNAMGWYRQAPAKQSELVATISWSGGSTYYADSVKGRFTISRDNAKNTVYLQMNSLKPEDTAVYYCAALGRHYRYDYWGQGTQVTVSS | low polyreactivity
QVQLVESGGGLVQAGGSLRLSCAASGRTFPVYAMGWYRQAPGKERELVAAIRGRSVRTYYADSVNGRFTISRDNAKNTVYLQMNSLKPEDTAVYYCAAYYFNPGMDYWGQGTQVTVSS | high polyreactivity
QVQLVESGGGLVQAGGSLRLSCAASGRTFPVYAMGWYRQAPGQERELVAAINTSGTSTYYADSVKGRFTISRDNAKNTVYLQMNSLKPEDTAVYYCATRYRYTYYWGQGTQVTVSS | high polyreactivity
QVQLVESGGGLVQAGGSLRLSCAASGRTFPWYAMGWYRQAPGKERELVAAISWTGGSTYYADSVKGRFTISRDNAKNTVYLQMNSLKPEDTAVYYCAASPWYLKYEYWGQGTQVTVSS | low polyreactivity
QVQLVESGGGLVQAGGSLRLSCAASGRTFPYNAMGWYRQATGKERELVATINTSGASTSYADSVKRRFTISRDNEKNTVYLQMNSLKPEVTAVYYCNRDRRYYHRFDYWGQGTQVTVSS | low polyreactivity
QVQLVESGGGLVQAGGSLRLSCAASGRTFPYYAMGLYRQAPGKERELVATITRGGSTYYADSVKGRFTISRDNAKNTVYLQMNSLKPEDTAVYYCAVDAYYEMDYWGQGTQLTVSS | low polyreactivity
QVQLVESGGGLVQAGGSLRLSCAASGRTFPYYAMGWYRQAPGKERELVAAISSSGGGTYYADSVKGRFTISRDNAKNTVYLQMNSLKPEDTAVYYCNAVSYYQDSFYYWGQGTQVTVSS | high polyreactivity
QVQLVESGGGLVQAGGSLRLSCAASGRTFPYYAMGWYRQAPGKERELVAAISSSGGSTYYADSVKGRFTISRDNAKNTVYLQMNSLKPEDTAVYYCAATRGWLHSFARDDHDYWGQGTQVTVSS | high polyreactivity

Sequence | polyreactivity (PSR sort gate)
QVQLVESGGGLVQAGGSLRLSCAASGRTFPYYAMGWYRQAPGKERELVAAITGSGGRTYYADSVKGRFTISRDNAKNTVYLQMNRLKPEDTAVYYCATDRGYYTWRYGRNDYWGQGTLVTVSS | high polyreactivity
QVQLVESGGGLVQAGGSLRLSCAASGRTFPYYAMGWYRQATGKERELVAAIRSSGDRTYYADSVKGRFTISRDNAKNTVYLQMNSLKPEDTAVYYCNKVFLRSRRYYWGQGTQVTVSS | high polyreactivity
QVQLVESGGGLVQAGGSLRLSCAASGRTFPYYVMGWNRQAPRKERELVATISSSGRTYYADSVKGRFTISRDNAKNTVYLQMNSLNPEDTSVYYCAARFRWNQNYHFYYWGQGTQVTVSS | high polyreactivity
QVQLVESGGGLVQAGGSLRLSCAASGRTFQANAMGWYRQAPGTERELVAAITGRGGTTYYADSVKGRFTISRDTAKNTVYVQMYSLKPEDTAVYYCALALSGYGFWGYDYWGLGTQVTVSS | low polyreactivity
QVQLVESGGGLVQAGGSLRLSCAASGRTFQEYAMGWYRQAPGKERELVADISDGGSTNYADSVKGRFTISRDNAKNTVYLQMNSLKPEDTAVYYCAADQYHGVGINFRSDYDYWGQGTQVTVSS | low polyreactivity
QVQLVESGGGLVQAGGSLRLSCAASGRTFQFYAMGWYRPAPGKERELVAAITYSGDSTYYADSVKGRFTISRDNAKNTVYLQMNSLKPEDTAVYYCAAGVWFYWYEYDYWGQGTQVTVSS | high polyreactivity
QVQLVESGGGLVQAGGSLRLSCAASGRTFQINAMGWYRQAPGKERELVAAITWSGGSTYYADSVKRRFTISPDNAKNPVYLQMNSLKPADTALYYCNTRYRAYATLNLIAGYNSWGQGTQVTVSS | low polyreactivity
QVQLVESGGGLVQAGGSLRLSCAASGRTFQLNAMGCYRQAPGKERELVAAISTRGGSTYYADSVKGRFTISRDNAKNTVYLQMNSLKPEDTAVYYCAKDPSFTRGYKDGGGYDYWGQGTQVTVSS | high polyreactivity
QVQLVESGGGLVQAGGSLRLSCAASGRTFQLNAMGWYRQAPGKEREFVATISTGGGGTFYADSVKGRFTISRDNAKNTVYLQMNSLKPEDTAVYYCNAGGETYIFRDLRHDYWGQGTQVTVSS | low polyreactivity
QVQLVESGGGLVQAGGSLRLSCAASGRTFQLYAMGWYRQAPGKERELVAAITSGGNTYYADSVKGRFTISRDNAKNTVYLQMNSLKPVDTAVYYCFLYYSRSMGYWGQGTQVTVSS | high polyreactivity
QVQLVESGGGLVQAGGSLRLSCAASGRTFQQNAMGWYRQAPGKERELVATIRNGGNTNYADSVKGRFTISRDNAKNTVYLQLNSLKPEDTAVYYSAARVYTHGLWGYNYWGQGTQVTVSS | high polyreactivity
QVQLVESGGGLVQAGGSLRLSCAASGRTFQSNAMGWYRQAPGNERELVAAISRRGGSTYYADSVKGRFTISRDNEKNTVYLQMNCLKPEDTAVYYCNRDAKAGDWGQGTQVTVSS | high polyreactivity
QVQLVESGGGLVQAGGSLRLSCAASGRTFQSYAMGWYRQAPGKERELVASITSGASTNYADSVKGRFTISRDNAKNTVYLQMNSLKPEDTAVYYCARRIGHGSRPYWLETWRYPYDYWGQGTQVTVSS | low polyreactivity
QVQLVESGGGLVQAGGSLRLSCAASGRTFQTYAMGWYRQAPGKERELVAAISSDGSTYYADSVKGRFTISRDNAKNTVYLQMNSLKPEDTAVYYCNTDIGDKYYYHVRVDYEYWGQGTQVTLSS | low polyreactivity
QVQLVESGGGLVQAGGSLRLSCAASGRTFQWNGMGWYRQAPGKERELVDTIRRGGSTNYADSVKGRFTISRDNAKNTVDLQMNSLKPEDTAVYYCAADRRYPGGWGFEYNYWGQGTQVTVSS | low polyreactivity
QVQLVESGGGLVQAGGSLRLSCAASGRTFQYYAMGWNRQAPGKERELVAAISQDGGSTYYADSVKGRFTISRDNAKHSVYLQMNSLKPEDTAVYYCDAEVWRSYGYWGQGTQVTVSS | low polyreactivity
QVQLVESGGGLVQAGGSLRLSCAASGRTFQYYAMGWYRPAPGKERELVAALSSRGGSTYYADSVKGRFTISRDNAKNTVSLQMNSLKPEDTAVYYCAAYVLPRQRVRSDYWGQGTQVTVTS | high polyreactivity
QVQLVESGGGLVQAGGSLRLSCAASGRTFQYYVMGWYRQAPGKERELVAAITSAGSTNYADSVKGRFTISRDNAKNTVYLQMNSLKPEDTAVYYCNADLWVNLHNDDDYWGQGTQVTVSS | low polyreactivity
QVQLVESGGGLVQAGGSLRLSCAASGRTFRANAMGWSRQAPGKERELVAAITWDGGSTYYADSVKGRFTISRDNAKNTVYLQMNSLKPEDTAVYYCNTYPYLWGQGTQVTVSS | low polyreactivity
QVQLVESGGGLVQAGGSLRLSCAASGRTFRANDMGWYRQAPGKERELVAAISQSGGSTYYADSVKGRFTISRDNAKNTVYFQMNSLKPEDTAVYDCNALGRISNHTLYDYWGQGTQVTVSS | low polyreactivity
QVQLVESGGGLVQAGGSLRLSCAASGRTFRANVMGWYRQAPGKERELVAAISKSGGRTYYADSVKGRFTISRDNAKNTVYLQMNSLKPEDTAVYYCAADIPSYRGYGYDYWGQGTQVTVSS | high polyreactivity
